Experimental findings from article PMC5906480, “Tau Antibody Structure Reveals a Molecular Switch Defining a Pathological Conformation of the Tau Protein” (Scientific Reports, 2018) are described below.

Assay [1] deals with pS396/pS404 peptide. Kind of assay: ELISA, pS396/pS404 peptide. In kind it is binding. Conditions: plate coated with peptide 2 μg/mL; C5.2 IgG 8 μg/mL–0.05 ng/mL, 1 h room temperature; 405 nm. Here is the method:
Immulon 4 HBX (extra high-binding) 96-well microtiter plates (Thermo Scientific) were coated with the same peptide used for crystallization diluted to 2 μg/mL in phosphate-buffered saline (PBS) and left overnight at 4 °C (Table 1). Plates were then washed three times in PBS-T (PBS containing 0.05% Tween-20) and blocked in 5% non-fat milk and 3% bovine serum albumin in PBS for 2 hours at room temperature. Plates were subsequently washed 3 times in PBS-T before C5.2 was serially diluted (8 μg/mL–0.05 ng/mL) in PBS and incubated for 1 hour at room temperature. Then, alkaline phosphatase-conjugated goat anti-mouse IgG (Southern Biotech) was diluted 1:2000 in PBS and incubated for 30 minutes at room temperature. Finally, bound IgG was analyzed by addition of p-nitrophenyl phosphate substrate (Thermo Scientific) and measurement at 405 nm on a VersaMax Microplate Reader.
In order to evaluate the ability of C5.2 to exclusively target the phosphorylated epitope, we performed an enzyme-linked immunosorbent assay (ELISA). The peptides used in the assay are the same peptides used for crystallization and diluted to a concentration of 2 μg/mL (Table 1). Binding curves were generated from ELISA data by maintaining plate-bound peptide concentrations and serially diluting C5.2 IgG (Fig. 1c).

The subject of assay [2] is tau in brain fractions of rTg4510 mice overexpressing human tau with P301L mutation. Kind of assay: Western and dot blot, rTg4510 mouse brain. In kind it is binding, human tau in rTg4510 mouse. Conditions: C5.2 1 µg/mL overnight 4 °C, 24 weeks old mice. An excerpt: (§1) rTg4510, tTA and non-Tg littermate F1 mice were bred at Taconic, Denmark. Mice expressing the tTA activator transgenes were maintained on 129S6 background strain (Taconic) and mutant tau responder mice were maintained in the FVB/NCrl background strain (Taconic). Mice were screened by PCR using the following primer pairs [NT] and [NT] for the tTA activator transgene and [NT] and [NT] for the mutant tau responder transgene. rTg4510, tTA and non-Tg littermates were group-housed (5 animals/cage) and received water and food ad libitum (Brogaarden, Denmark) as well as environmental enrichment. The light/dark cycle was 12 hours; room temperature was 21 ± 2 °C and a relative humidity of 55% ± 5%. All animal experiments were performed in accordance with the European Communities Council Directive #86/609, the directives of the Danish National Committee on Animal Research Ethics, and Danish legislation on experimental animals (license no. 2014-15-0201-00339). Mice were euthanized by cervical dislocation. Brains were quickly removed, weighed and divided sagittally down the midline to yield two hemispheres. […] Tau and pTau levels were assessed in the samples using 1 μg/mL C5.2 overnight at 4 °C. A secondary fluorophore conjugated IgG antibody was used (IRDye 680 Goat anti-mouse, LICOR biosciences) and the signal was quantified using Odyssey CLx and Image studio software (LI-COR biosciences). […]

Assay [3] deals with normal tau in the soluble tau fraction (S1) from non-transgenic littermates. Kind of assay: Western and dot blot, non-transgenic littermate brain. In kind it is binding, mouse. Conditions: C5.2 1 µg/mL overnight 4 °C, 24 weeks old non-tg mice.
Description: as §1

Assay [4] concerns tau pathology in Alzheimer's disease brain sections (prefrontal cortex). Kind of assay: Immunohistochemistry, Alzheimer's disease brain sections. In kind it is binding, human. Conditions: C5.2 at 0.1 to 1 μg/mL, overnight 4 °C, paraffin sections. On the procedure: Paraffin sections of 4 μm thickness were prepared from blocks of PFA-fixed prefrontal cortex from AD donors and non-demented controls obtained from Tissue Solutions (Glasgow, UK). The sections were deparaffinised, rehydrated and subjected to antigen retrieval by boiling in 10 mM citrate buffer pH 6 for 5 min. Endogenous peroxidase was quenched for 10 min with 1% H2O2 in PBS. Sections were then incubated 20 min in blocking buffer followed by overnight incubation in a humidified chamber at 4 °C with primary antibody at 0.1 to 1 μg/mL in incubation buffer. Between each incubation step, the sections were washed 3 × 10 min in wash buffer. Subsequently, the sections were incubated at room temperature in the following solutions; 60 min with a biotinylated secondary Ab diluted 1:200 in wash buffer; 60 min in ABC; 20 min in DAB. Finally, the sections were counterstained with hematoxylin and coverslipped.

B1: C5.2: novel mouse monoclonal antibody that targets the pS396 tau epitope region (antibody, V domains shown)
VH: QVQLQQSDAELVKPGASVKISCKASGYTFTDRTIHWVKQRPEQGLEWIGYIYPGDDSTKYNDMFKAKATLTADKSSNTAYMQLNSLTSDDSAVYFCARRGTMDYWGQGTSVTVSS
VL: DVQMIQSPSSLSASLGDIVTMTCQASQDTSINLNWFQQKPGKAPKLLIYGASNLEDGVPSRFSGSRYGTDFTLTISSLEDEDMATYFCLQHTYLPFTFGSGTKLEIK
On to B1, for which the “Association with peptide (ELISA)” value in assay [1] was “strong association”. The “Binding to insoluble tau fraction (P3)” value in assay [2] (sarkosyl-insoluble P3) was “binds predominantly to an insoluble tau fraction (P3)”. The “Reactivity to soluble tau fraction (S1)” value in assay [2] (soluble S1) is on record as “also has reactivity to a soluble tau fraction (S1)”. Further, the “Detection of normal tau (S1)” value in assay [3] was “not detected”. Also, in assay [4], the “Binding in AD brain sections” value is “binds strongly to tangles, pre-tangles and dystrophic neurites”.
